Residue numbers refer to the chain shown, from its start.
B1: S0057 (antibody, V domains shown)
VH: QGQLVQSGAEVKKPGASVKVSCKASGYTFNNYGISWVRQAPGQGLEWMGWISAYNGFTRSTQKFQGRVTLTTDTSTSTAHMELRSLRSDDTAAYYCARDGGDGFDPWGQGTLVTVSS
VL: EIVLTQSPATLSLSPGERATLSCRASQSVSSFLAWYQQKPGQAPRLLIFDASNRATGIPARFSGSGSGTDFTLTISSLEPEDFAVYYCQQRSNWITFGQGTRLEIKRA
B2: S0040 (antibody, V domains shown)
VH: QVQLVQSGAEVKKPGASVKVSCKASGYTFTSYDINWVRQATGQGLEWMGWMNPNSGNTGYAQNFQGRVTMTRNTSINTAYMELSSLRSEDTAVYYCTRGGPTLVRGVIIRDAFDFWGQGTMVTVSS
VL: EIVMTQSPATLSVSPGERATLSCRASQSVSNSFAWYQQKPGQAPRLLIYGAFTRATGIPARFSGSGSGTEFTLTISSLQSEDFAVYYCQQYKTWPLTFGGGTKVEIKR
B3: S0103 (antibody, V domains shown)
VH: B2 VH with N73D, I76V, T97A, T102N
VL: B2 VL with T69I
B4: S0042 (antibody, V domains shown)
VH: QVQLVQSGTEVKKPGASVKVSCKVSGYTLSDLSIHWVRQAPGKGLEWMGGFEPEDGEIIYAQKFQGRVIMTEDTSTDTAYMKLSSLRSEDTAVYYCATDKRYFDWLLSGFDYWGQGTLVTVSS
VL: DIQLTQSPSFLSASVGDRVTITCRASQGISSYLAWYQQKPGKAPKLLIFAASTLQSGVPSRFSGSGSGTEFTLTISSLQPEDFATYYCQRLHSYPRTFGQGTKVEIKRA
B5: S0023 (antibody, V domains shown)
VH: EVQLLESGGGLVQPGGSLRLSCAASGFTFSTFAMSWVRQAPGKGLEWVSTISGGGDSTYYADSVKGRFTISRDNSKNMMSLQMNSLRAVDTAVYYCVKGGGDEYFYYGMDVWGQGTTVTVSS
VL: DIQMTQSPSSLSASVGDRVTITCRASQGIRNDLGWYQQKPGKAPKRLIYSASSLQSGVPSRFSGSGSGTEFTLTISSLQPEDFATYYCLQHNSYPYTFGQGTPLDIKR

Assays:
[1] = biological target: human siglec12 (human) (UniProt Q96PQ1); assay: cell-based or functional assay
[2] = biological target: human siglec12 (human) (UniProt Q96PQ1); assay: FACS U937
[3] = biological target: siglec6 with C-terminal FLAG tag on Expi 293 cells (UniProt O43699); assay: flow cytometry, transfected Expi 293, 500 nM
[4] = biological target: siglec12 with C-terminal FLAG tag on Expi 293 cells (UniProt Q96PQ1); assay: flow cytometry, transfected Expi 293, 500 nM
Sequence of siglec12 with C-terminal FLAG tag on Expi 293 cells (Q96PQ1 19-595): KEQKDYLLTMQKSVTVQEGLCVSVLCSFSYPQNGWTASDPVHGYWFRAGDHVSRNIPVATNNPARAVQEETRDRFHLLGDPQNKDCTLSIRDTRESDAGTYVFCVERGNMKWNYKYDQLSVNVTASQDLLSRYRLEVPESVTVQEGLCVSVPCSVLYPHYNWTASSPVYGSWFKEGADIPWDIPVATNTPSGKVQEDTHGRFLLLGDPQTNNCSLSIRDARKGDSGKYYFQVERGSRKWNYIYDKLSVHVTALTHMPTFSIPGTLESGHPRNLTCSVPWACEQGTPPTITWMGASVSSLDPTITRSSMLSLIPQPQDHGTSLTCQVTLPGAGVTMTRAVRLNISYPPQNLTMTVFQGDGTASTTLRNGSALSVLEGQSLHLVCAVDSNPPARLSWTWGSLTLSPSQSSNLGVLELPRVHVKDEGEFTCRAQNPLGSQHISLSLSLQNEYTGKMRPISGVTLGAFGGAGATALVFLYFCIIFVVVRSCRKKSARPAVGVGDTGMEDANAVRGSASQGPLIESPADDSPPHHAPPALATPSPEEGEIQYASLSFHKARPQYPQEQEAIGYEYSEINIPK

Sequence of siglec6 with C-terminal FLAG tag on Expi 293 cells (O43699 27-453 limits assumed): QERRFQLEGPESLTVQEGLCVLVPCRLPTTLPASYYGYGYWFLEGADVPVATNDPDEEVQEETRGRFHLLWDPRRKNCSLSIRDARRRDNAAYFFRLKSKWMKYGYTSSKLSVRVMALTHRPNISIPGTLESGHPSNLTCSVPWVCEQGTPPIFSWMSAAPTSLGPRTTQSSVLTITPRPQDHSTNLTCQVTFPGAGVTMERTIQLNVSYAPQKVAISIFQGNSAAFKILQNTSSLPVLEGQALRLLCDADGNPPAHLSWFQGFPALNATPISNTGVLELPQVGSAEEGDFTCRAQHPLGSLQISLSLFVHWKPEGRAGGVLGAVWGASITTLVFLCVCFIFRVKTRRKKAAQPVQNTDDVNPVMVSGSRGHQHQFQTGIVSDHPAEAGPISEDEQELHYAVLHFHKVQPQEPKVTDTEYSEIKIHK

| Binder | % Internalization at 2 hours, U937 cells [1] [%] | MFI of pH sensitive dye, Siglec12 complexes, 0 hours [1] | MFI of pH sensitive dye, Siglec12 complexes, 4 hours [1] | MFI of pH sensitive dye, Siglec12 complexes, 24 hours [1] | Siglec12 % surface expression, 0 min [1] [%] | Siglec12 % surface expression, 15 min [1] [%] | Siglec12 % surface expression, 30 min [1] [%] | Siglec12 % surface expression, 45 min [1] [%] | Siglec12 % surface expression, 60 min [1] [%] | Siglec12 % surface expression, 90 min [1] [%] | Siglec12 % surface expression, 120 min [1] [%] | Flow % Gated [2] [%] | Flow Fluor MFI [2] | MFI [3] | MFI [4] |
| --- | --- | --- | --- | --- | --- | --- | --- | --- | --- | --- | --- | --- | --- | --- | --- |
| B1 | 58 | 20 | 24.7 | 26.5 | 100 | 96 | 84 | 73 | 65 | 47 | 40 | 79 | 368 | 29.8 | 912 |
| B2 | – | – | – | – | – | – | – | – | – | – | – | 6 | 111 | – | – |
| B3 | – | – | – | – | – | – | – | – | – | – | – | 2 | 97 | – | – |
| B4 | 66 | – | – | – | – | – | – | – | – | – | – | 4 | 107 | 25.7 | 538 |
| B5 | 32 | – | – | – | – | – | – | – | – | – | – | 3 | 93 | 29.3 | 484 |

From patent publication US20250019432A1
